Where a chain is given by its changes, count along the chain named. In names and notes the source's numbering stands.
B1: YqjM (Bacillus subtilis subsp. subtilis str. 168) (protein)
chain: ARKLFTPITIKDMTLKNRIVMSPMCMYSSHEKDGKLTPFHMAHYISRAIGQVGLIIVEASAVNPQGRITDQDLGIWSDEHIEGFAKLTEQVKEQGSKIGIQLAHAGRKAELEGDIFAPSAIAFDEQSATPVEMSAEKVKETVQEFKQAAARAKEAGFDVIEIHAAHGYLIHEFLSPLSNHRTDEYGGSPENRYRFLREIIDEVKQVWDGPLFVRVSASDYTDKGLDIADHIGFAKWMKEQGVDLIDCSSGALVHADINVFPGYQVSFAEKIREQADMATGAVGMITDGSMAEEILQNGRADLIFIGRELLRDPFFARTAAKQLNTEIPAPVQYERGW
notes: ene-reductase, FMN enzyme
B2: YqjM (Bacillus subtilis subsp. subtilis str. 168; I69G) (protein)
chain: B1 chain with I68G
notes: ene-reductase, FMN enzyme
B3: YqjM (Bacillus subtilis subsp. subtilis str. 168; I69Y) (protein)
chain: B1 chain with I68Y
notes: ene-reductase, FMN enzyme
B4: YqjM (Bacillus subtilis subsp. subtilis str. 168; C26A/I69Y) (protein)
chain: B1 chain with C25A, I68Y
notes: ene-reductase, FMN enzyme
B5: YqjM (Bacillus subtilis subsp. subtilis str. 168; C26G/I69Y) (protein)
chain: B1 chain with C25G, I68Y
notes: ene-reductase, FMN enzyme
B6: YqjM (Bacillus subtilis subsp. subtilis str. 168; C26G/I69Y/Y169F) (protein)
chain: B1 chain with C25G, I68Y, Y168F
notes: ene-reductase, FMN enzyme
B7: YqjM (Bacillus subtilis subsp. subtilis str. 168; C26G/I69Y/Y28F) (protein)
chain: B1 chain with C25G, Y27F, I68Y
notes: ene-reductase, FMN enzyme

What follows are proteins tested on O=C1CCCC/C1=C\c1ccccc1 (assay: purified protein). Details: 1.0 mM NADPH, 10 μM enzyme, PBS 100 mM, pH 7.5, 30 °C.
Assay type: biochemical, Bacillus subtilis

Q: Which results are given for B1?
A: Km: 7.98 ± 0.18 mM; kcat: 0.19 ± 0.009 s⁻¹; kcat/Km: 20 M⁻¹ s⁻¹

Q: Which Km does the source give for B2 here?
A: Its Km is 3.48 ± 0.11 mM.

Q: What about the kcat of the same protein?
A: The kcat was 0.43 ± 0.01 s⁻¹.

Q: What about the kcat/Km of the same protein?
A: The kcat/Km was 120 M⁻¹ s⁻¹.

Q: What does the source list for B3?
A: Km: 4.56 ± 0.12 mM; kcat: 0.87 ± 0.012 s⁻¹; kcat/Km: 190 M⁻¹ s⁻¹

Q: B4 was tested. Which Km did it give?
A: Its Km is 2.98 ± 0.1 mM.

Q: And the kcat?
A: The kcat was 1.12 ± 0.02 s⁻¹.

Q: And the kcat/Km?
A: The kcat/Km was 380 M⁻¹ s⁻¹.

Q: For B5, which Km is on record?
A: The Km was 1.1 ± 0.03 mM.

Q: And the kcat?
A: The kcat was 1.86 ± 0.05 s⁻¹.

Q: And the kcat/Km?
A: The kcat/Km was 1690 M⁻¹ s⁻¹.

These proteins were tested on O=C1CCC/C1=C\c1ccccc1 (assay: purified protein). Details: 1.0 mM NADPH, 10 μM enzyme, PBS 100 mM, pH 7.5, 30 °C.
Assay type: biochemical, Bacillus subtilis

Q: Which results are given for B1?
A: Km: 8.35 ± 0.2 mM; kcat: 0.23 ± 0.005 s⁻¹; kcat/Km: 30 M⁻¹ s⁻¹

Q: For B2, which Km is on record?
A: The Km was 3.56 ± 0.08 mM.

Q: What about the kcat of the same protein?
A: Its kcat is 0.39 ± 0.012 s⁻¹.

Q: And the kcat/Km?
A: The kcat/Km was 110 M⁻¹ s⁻¹.

Q: With B3 as the protein, how does the Km read?
A: Its Km is 4.25 ± 0.09 mM.

Q: And the kcat?
A: Its kcat is 0.65 ± 0.015 s⁻¹.

Q: And the kcat/Km?
A: The kcat/Km was 150 M⁻¹ s⁻¹.

Q: What does the source list for B4?
A: Km: 2.65 ± 0.02 mM; kcat: 0.89 ± 0.023 s⁻¹; kcat/Km: 340 M⁻¹ s⁻¹

Q: Which Km does the source give for B5 here?
A: Its Km is 1.21 ± 0.01 mM.

Q: What about the kcat of the same protein?
A: Its kcat is 1.59 ± 0.03 s⁻¹.

Q: And the kcat/Km?
A: Its kcat/Km is 1310 M⁻¹ s⁻¹.

Q: How did the Km turn out when B6 was run?
A: The Km was 1.69 ± 0.01 mM.

Q: What about the kcat of the same protein?
A: Its kcat is 0.56 ± 0.009 s⁻¹.

Q: What about the kcat/Km of the same protein?
A: The kcat/Km was 330 M⁻¹ s⁻¹.

Q: What does the source list for B7?
A: Km: 2.21 ± 0.02 mM; kcat: 0.49 ± 0.012 s⁻¹; kcat/Km: 220 M⁻¹ s⁻¹

Reference: paper PMC10761851, “Asymmetric α-benzylation of cyclic ketones enabled by concurrent chemical aldol condensation and biocatalytic reduction” (Nature Communications, 2024)
